The record followed here is the supplement of paper PMC5998384.

Series [1] deals with HeLa Kyoto. In words: melting temperature (median over replicates), in situ; higher = more thermally stable.
For series [2], the system named is HeLa Kyoto. In words: solubility change mitosis vs G1/S (difference of NP-40 vs SDS log2 ratios) (log2 ratio difference); higher = more soluble in mitosis.
Series [3] has as its system HeLa Kyoto. Briefly: solubility in G1/S (NP-40 vs SDS abundance) (log2 ratio); higher = more soluble. To be noted: cell cycle stage: G1/S.
The test system of series [4] is HeLa Kyoto. In words: thermal stability score vs G1/S (z-score of summed log2 fold changes over temperatures); higher = more thermally stable than in G1/S.
Where [5] appears, read: cell cycle stage: early G1 (4.5 h after nocodazole release).
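Wherever melting temperature (median over replicates), in situ is given: HeLa Kyoto cells synchronized by double thymidine or nocodazole block, proteins quantified by TMT10plex mass spectrometry, three independent biological replicates.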
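Wherever solubility change mitosis vs G1/S (difference of NP-40 vs SDS log2 ratios) is given: synchronized HeLa Kyoto cells (double thymidine block for G1/S, nocodazole release for mitosis), protein amounts in NP-40 versus SDS lysates quantified by mass spectrometry, three biological replicates.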
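Wherever solubility in G1/S (NP-40 vs SDS abundance) is given: HeLa Kyoto cells arrested at G1/S by double thymidine block, proteins quantified by TMT10plex mass spectrometry in mild NP-40 versus SDS extracts, three biological replicates.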
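Wherever thermal stability score vs G1/S (z-score of summed log2 fold changes over temperatures) is given: synchronized HeLa Kyoto cells, proteins quantified by TMT10plex mass spectrometry, three biological replicates, mitosis taken 0.5 h after nocodazole release, G1/S directly after double thymidine block.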

On to “MATEIGSPPRFFHMPRFQHQAPRQLFYKRPDFAQQQAMQQLTFDGKRMRKAVNRKTIDYNPSVIKYLENRIWQRDQRDMRAIQPDAGYYNDLVPPIGMLNNPMNAVTTKFVRTSTNKVKCPVFVVRWTPEGRRLVTGASSGEFTLWNGLTFNFETILQAHDSPVRAMTWSHNDMWMLTADHGGYVKYWQSNMNNVKMFQAHKEAIREASFSPTDNKFATCSDDGTVRIWDFLRCHEERILRGHGADVKCVDWHPTKGLVVSGSKDSQQPIKFWDPKTGQSLATLHAHKNTVMEVKLNLNGNWLLTASRDHLCKLFDIRNLKEELQVFRGHKKEATAVAWHPVHEGLFASGGSDGSLLFWHVGVEKEVGGMEMAHEGMIWSLAWHPLGHILCSGSNDHTSKFWTRNRPGDKMRDRYNLNLLPGMSEDGVEYDDLEPNSLAVIPGMGIPEQLKLAMEQEQMGKDESNEIEMTIPGLDWGMEEVMQKDQKKVPQKKVPYAKPIPAQFQQAWMQNKVPIPAPNEVLNDRKEDIKLEEKKKTQAEIEQEMATLQYTNPQLLEQLKIERLAQKQVEQIQPPPSSGTPLLGPQPFPGQGPMSQIPQGFQQPHPSQQMPMNMAQMGPPGPQGQFRPPGPQGQMGPQGPPLHQGGGGPQGFMGPQGPQGPPQGLPRPQDMHGPQGMQRHPGPHGPLGPQGPPGPQGSSGPQGHMGPQGPPGPQGHIGPQGPPGPQGHLGPQGPPGTQGMQGPPGPRGMQGPPHPHGIQGGPGSQGIQGPVSQGPLMGLNPRGMQGPPGPRENQGPAPQGMIMGHPPQEMRGPHPPGGLLGHGPQEMRGPQEIRGMQGPPPQGSMLGPPQELRGPPGSQSQQGPPQGSLGPPPQGGMQGPPGPQGQQNPARGPHPSQGPIPFQQQKTPLLGDGPRAPFNQEGQSTGPPPLIPGLGQQGAQGRIPPLNPGQGPGPNKGDSRGPPNHHMGPMSERRHEQSGGPEHGPERGPFRGGQDCRGPPDRRGPHPDFPDDFSRPDDFHPDKRFGHRLREFEGRGGPLPQEEKWRRGGPGPPFPPDHREFSEGDGRGAARGPPGAWEGRRPGDERFPRDPEDPRFRGRREESFRRGAPPRHEGRAPPRGRDGFPGPEDFGPEENFDASEEAARGRDLRGRGRGTPRGGRKGLLPTPDEFPRFEGGRKPDSWDGNREPGPGHEHFRDTPRPDHPPHDGHSPASRERSSSLQGMDMASLPPRKRPWHDGPGTSEHREMEAPGGPSEDRGGKGRGGPGPAQRVPKSGRSSSLDGEHHDGYHRDEPFGGPPGSGTPSRGGRSGSNWGRGSNMNSGPPRRGASRGGGRGR [WDR33]”, for which the melting temperature in series [1] (cell cycle stage: G1/S) was 49.3 °C; in series [1] (cell cycle stage: mitosis), 49.8 °C. Moreover, the “solubility change mitosis (log2)” value in series [2] came out at 0.257. The “solubility in G1/S (log2)” value in series [3] was -0.421. Moreover, the thermal stability score in series [4] (setting [5]) was 0.933; in series [4] (cell cycle stage: mitosis) it was 1.06.

In the case of “MATELEYESVLCVKPDVSVYRIPPRASNRGYRASDWKLDQPDWTGRLRITSKGKTAYIKLEDKVSGELFAQAPVEQYPGIAVETVTDSSRYFVIRIQDGTGRSAFIGIGFTDRGDAFDFNVSLQDHFKWVKQESEISKESQEMDARPKLDLGFKEGQTIKLCIGNITNKKGGASKPRTARGGGLSLLPPPPGGKVTIPPPSSSVAISNHVTPPPIPKSNHGGSDADILLDLDSPAPVTTPAPTPVSVSNDLWGDFSTASSSVPNQAPQPSNWVQF [NECAP1]”, the melting temperature in series [1] (cell cycle stage: G1/S) came to 51.5 °C; in series [1] (cell cycle stage: mitosis), 52.4 °C. In addition, the “solubility change mitosis (log2)” value in series [2] is -0.274. Moreover, the “solubility in G1/S (log2)” value in series [3] came to 0.521. Also, the thermal stability score in series [4] (setting [5]) is 0.202; in series [4] (cell cycle stage: mitosis), 0.108.

Take “MATERSRSAMDSPVPASMFAPEPSSPGAARAAAAAARLHGGFDSDCSEDGEALNGEPELDLTSKLVLVSPTSEQYDSLLRQMWERMDEGCGETIYVIGQGSDGTEYGLSEADMEASYATVKSMAEQIEADVILLRERQEAGGRVRDYLVRKRVGDNDFLEVRVAVVGNVDAGKSTLLGVLTHGELDNGRGFARQKLFRHKHEIESGRTSSVGNDILGFDSEGNVVNKPDSHGGSLEWTKICEKSTKVITFIDLAGHEKYLKTTVFGMTGHLPDFCMLMVGSNAGIVGMTKEHLGLALALNVPVFVVVTKIDMCPANILQETLKLLQRLLKSPGCRKIPVLVQSKDDVIVTASNFSSERMCPIFQISNVTGENLDLLKMFLNLLSPRTSYREEEPAEFQIDDTYSVPGVGTVVSGTTLRGLIKLNDTLLLGPDPLGNFLSIAVKSIHRKRMPVKEVRGGQTASFALKKIKRSSIRKGMVMVSPRLNPQASWEFEAEILVLHHPTTISPRYQAMVHCGSIRQTATILSMDKDCLRTGDKATVHFRFIKTPEYLHIDQRLVFREGRTKAVGTITKLLQTTNNSPMNSKPQQIKMQSTKKGPLTKRDEGGPSGGPAVGAPPPGDEASSVGAGQPAASSNLQPQPKPSSGGRRRGGQRHKVKSQGACVTPASGC [GTPBP1]”: the melting temperature in series [1] (cell cycle stage: G1/S) is 51.1 °C; in series [1] (cell cycle stage: mitosis), 50.7 °C. Further, in series [2], the “solubility change mitosis (log2)” value was -0.0833. Moreover, the “solubility in G1/S (log2)” value in series [3] was found to be 0.0683. Moreover, the thermal stability score in series [4] (setting [5]) was found to be 1.01; in series [4] (cell cycle stage: mitosis) it was 0.553.

“MATFISVQLKKTSEVDLAKPLVKFIQQTYPSGGEEQAQYCRAAEELSKLRRAAVGRPLDKHEGALETLLRYYDQICSIEPKFPFSENQICLTFTWKDAFDKGSLFGGSVKLALASLGYEKSCVLFNCAALASQIAAEQNLDNDEGLKIAAKHYQFASGAFLHIKETVLSALSREPTVDISPDTVGTLSLIMLAQAQEVFFLKATRDKMKDAIIAKLANQAADYFGDAFKQCQYKDTLPKEVFPVLAAKHCIMQANAEYHQSILAKQQKKFGEEIARLQHAAELIKTVASRYDEYVNVKDFSDKINRALAAAKKDNDFIYHDRVPDLKDLDPIGKATLVKSTPVNVPISQKFTDLFEKMVPVSVQQSLAAYNQRKADLVNRSIAQMREATTLANGVLASLNLPAAIEDVSGDTVPQSILTKSRSVIEQGGIQTVDQLIKELPELLQRNREILDESLRLLDEEEATDNDLRAKFKERWQRTPSNELYKPLRAEGTNFRTVLDKAVQADGQVKECYQSHRDTIVLLCKPEPELNAAIPSANPAKTMQGSEVVNVLKSLLSNLDEVKKEREGLENDLKSVNFDMTSKFLTALAQDGVINEEALSVTELDRVYGGLTTKVQESLKKQEGLLKNIQVSHQEFSKMKQSNNEANLREEVLKNLATAYDNFVELVANLKEGTKFYNELTEILVRFQNKCSDIVFARKTERDELLKDLQQSIAREPSAPSIPTPAYQSSPAGGHAPTPPTPAPRTMPPTKPQPPARPPPPVLPANRAPSATAPSPVGAGTAAPAPSQTPGSAPPPQAQGPPYPTYPGYPGYCQMPMPMGYNPYAYGQYNMPYPPVYHQSPGQAPYPGPQQPSYPFPQPPQQSYYPQQ [PDCD6IP]”: the melting temperature in series [1] (cell cycle stage: G1/S) is 48.7 °C; in series [1] (cell cycle stage: mitosis) it was 48.6 °C. Moreover, the “solubility change mitosis (log2)” value in series [2] was -0.0427. Besides, in series [3], the “solubility in G1/S (log2)” value turned out to be 0.366. Moreover, the thermal stability score in series [4] (setting [5]) is -2.03; in series [4] (cell cycle stage: mitosis) it was -1.7.

Consider “MATKARVMYDFAAEPGNNELTVNEGEIITITNPDVGGGWLEGRNIKGERGLVPTDYVEILPSDGKDQFSCGNSVADQAFLDSLSASTAQASSSAASNNHQVGSGNDPWSAWSASKSGNWESSEGWGAQPEGAGAQRNTNTPNNWDTAFGHPQAYQGPATGDDDDWDEDWDGPKSSSYFKDSESADAGGAQRGNSRASSSSMKIPLNKFPGFAKPGTEQYLLAKQLAKPKEKIPIIVGDYGPMWVYPTSTFDCVVADPRKGSKMYGLKSYIEYQLTPTNTNRSVNHRYKHFDWLYERLLVKFGSAIPIPSLPDKQVTGRFEEEFIKMRMERLQAWMTRMCRHPVISESEVFQQFLNFRDEKEWKTGKRKAERDELAGVMIFSTMEPEAPDLDLVEIEQKCEAVGKFTKAMDDGVKELLTVGQEHWKRCTGPLPKEYQKIGKALQSLATVFSSSGYQGETDLNDAITEAGKTYEEIASLVAEQPKKDLHFLMECNHEYKGFLGCFPDIIGTHKGAIEKVKESDKLVATSKITLQDKQNMVKRVSIMSYALQAEMNHFHSNRIYDYNSVIRLYLEQQVQFYETIAEKLRQALSRFPVM [SNX9]”, for which the melting temperature in series [1] (cell cycle stage: G1/S) turned out to be 49.9 °C; in series [1] (cell cycle stage: mitosis), 49.3 °C. In series [2], the “solubility change mitosis (log2)” value was -0.0298. In addition, in series [3], the “solubility in G1/S (log2)” value is -0.0383. Also, the thermal stability score in series [4] (setting [5]) was -0.198; in series [4] (cell cycle stage: mitosis), 0.732.
